Measured values: patent publication US20150064134A1

Experiments:
Test in all cases: cell-based or functional assay
PRK2(h) (human) = PRK2(h) (human) (UniProt Q16513)
PKCζ(h) (human) = target: T1, PKCζ(h) (human) (UniProt Q05513)
T1 sequence (looked up): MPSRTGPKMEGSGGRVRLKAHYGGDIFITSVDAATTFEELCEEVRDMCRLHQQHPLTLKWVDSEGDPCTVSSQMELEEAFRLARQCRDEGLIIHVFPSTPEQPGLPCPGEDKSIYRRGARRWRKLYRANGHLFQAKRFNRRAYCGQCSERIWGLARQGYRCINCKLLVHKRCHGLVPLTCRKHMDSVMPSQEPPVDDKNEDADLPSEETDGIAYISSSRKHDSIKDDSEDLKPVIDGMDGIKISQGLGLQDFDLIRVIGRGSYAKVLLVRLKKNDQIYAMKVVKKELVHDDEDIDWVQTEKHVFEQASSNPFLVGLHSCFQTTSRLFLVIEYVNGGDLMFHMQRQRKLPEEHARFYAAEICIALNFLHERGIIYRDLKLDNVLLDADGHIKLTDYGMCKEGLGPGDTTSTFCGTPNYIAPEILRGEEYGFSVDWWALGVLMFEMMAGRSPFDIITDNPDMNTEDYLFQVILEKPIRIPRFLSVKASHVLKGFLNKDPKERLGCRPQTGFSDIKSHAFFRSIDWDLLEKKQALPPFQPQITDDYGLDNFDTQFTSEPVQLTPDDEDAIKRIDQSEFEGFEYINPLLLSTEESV

DDR2(h) (human) = target: T2, DDR2(h) (human) (UniProt Q16832)
T2 sequence (looked up): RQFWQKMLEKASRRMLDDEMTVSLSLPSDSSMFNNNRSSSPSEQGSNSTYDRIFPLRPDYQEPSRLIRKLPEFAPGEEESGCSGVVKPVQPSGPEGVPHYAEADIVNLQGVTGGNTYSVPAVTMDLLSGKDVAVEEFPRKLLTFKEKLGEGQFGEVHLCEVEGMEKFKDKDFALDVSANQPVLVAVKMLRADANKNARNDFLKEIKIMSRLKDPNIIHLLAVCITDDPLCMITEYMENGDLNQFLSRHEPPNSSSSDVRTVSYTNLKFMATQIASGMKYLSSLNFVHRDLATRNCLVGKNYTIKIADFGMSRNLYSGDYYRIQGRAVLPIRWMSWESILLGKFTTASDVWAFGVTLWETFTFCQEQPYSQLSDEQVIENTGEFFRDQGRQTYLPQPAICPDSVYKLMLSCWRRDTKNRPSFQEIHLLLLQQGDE

CHK2(h) (human) = CHK2(h) (human) (UniProt O96017)
CHK2(h) (human), sequence (O96017 5-543 limits assumed): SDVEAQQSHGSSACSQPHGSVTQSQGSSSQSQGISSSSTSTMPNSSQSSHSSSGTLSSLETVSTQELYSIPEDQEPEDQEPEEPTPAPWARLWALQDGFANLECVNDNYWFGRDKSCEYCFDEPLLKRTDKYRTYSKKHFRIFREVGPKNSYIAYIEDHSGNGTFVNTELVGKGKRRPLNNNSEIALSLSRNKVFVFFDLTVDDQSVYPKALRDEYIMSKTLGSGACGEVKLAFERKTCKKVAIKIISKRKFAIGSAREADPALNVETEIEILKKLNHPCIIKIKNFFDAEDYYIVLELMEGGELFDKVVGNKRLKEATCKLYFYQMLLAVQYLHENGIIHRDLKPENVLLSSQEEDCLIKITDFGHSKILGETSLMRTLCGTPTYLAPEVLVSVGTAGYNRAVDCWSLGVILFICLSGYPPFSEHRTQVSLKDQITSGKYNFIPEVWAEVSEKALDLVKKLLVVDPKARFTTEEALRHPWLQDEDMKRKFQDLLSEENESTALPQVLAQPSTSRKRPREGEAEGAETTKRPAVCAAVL

Hck(h) activated (human) = Hck(h) activated (human) (UniProt P08631)
PKCθ(h) (human) = PKCθ(h) (human) (UniProt Q04759)
ZAP-70(h) (human) = ZAP-70(h) (human) (UniProt P43403)
ZAP-70(h) (human), sequence (P43403 whole entry): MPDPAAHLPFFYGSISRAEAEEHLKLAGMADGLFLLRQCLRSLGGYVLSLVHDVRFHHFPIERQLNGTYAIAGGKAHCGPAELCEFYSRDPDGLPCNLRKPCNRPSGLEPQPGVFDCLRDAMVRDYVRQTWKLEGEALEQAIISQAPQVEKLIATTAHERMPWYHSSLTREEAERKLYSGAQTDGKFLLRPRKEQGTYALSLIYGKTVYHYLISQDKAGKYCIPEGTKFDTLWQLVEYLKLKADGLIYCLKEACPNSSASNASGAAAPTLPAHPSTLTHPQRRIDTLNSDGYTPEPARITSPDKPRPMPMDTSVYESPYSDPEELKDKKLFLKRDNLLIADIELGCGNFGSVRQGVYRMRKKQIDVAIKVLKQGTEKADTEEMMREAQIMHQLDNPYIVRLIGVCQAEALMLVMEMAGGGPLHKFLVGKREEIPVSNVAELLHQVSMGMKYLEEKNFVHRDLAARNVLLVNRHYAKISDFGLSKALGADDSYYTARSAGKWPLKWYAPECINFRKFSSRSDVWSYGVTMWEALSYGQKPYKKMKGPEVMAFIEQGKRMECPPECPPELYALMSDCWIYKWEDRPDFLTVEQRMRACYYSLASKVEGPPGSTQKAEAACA

LOK(h) (human) = LOK(h) (human) (UniProt O94804)
Mer(h) (human) = target: T3, Mer(h) (human) (UniProt Q12866)
T3 sequence (looked up): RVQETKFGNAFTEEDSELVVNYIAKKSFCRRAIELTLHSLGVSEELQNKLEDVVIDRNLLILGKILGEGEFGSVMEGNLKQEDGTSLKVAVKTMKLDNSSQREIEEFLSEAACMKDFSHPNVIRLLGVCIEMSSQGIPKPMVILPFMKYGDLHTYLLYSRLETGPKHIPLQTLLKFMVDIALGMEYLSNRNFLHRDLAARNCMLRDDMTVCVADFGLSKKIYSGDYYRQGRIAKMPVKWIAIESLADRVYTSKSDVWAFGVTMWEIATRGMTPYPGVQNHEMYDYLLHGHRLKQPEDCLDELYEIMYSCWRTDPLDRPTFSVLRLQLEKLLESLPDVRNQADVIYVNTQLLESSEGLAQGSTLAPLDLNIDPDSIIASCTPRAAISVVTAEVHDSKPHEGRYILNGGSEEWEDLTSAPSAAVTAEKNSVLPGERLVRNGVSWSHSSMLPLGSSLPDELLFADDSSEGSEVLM

Pim-1(h) (human) = Pim-1(h) (human) (UniProt P11309)
TrkB (h) (human) = TrkB (h) (human) (UniProt Q16620)
NLK(h) (human) = target: T4, NLK(h) (human) (UniProt Q9UBE8)
T4 sequence (looked up): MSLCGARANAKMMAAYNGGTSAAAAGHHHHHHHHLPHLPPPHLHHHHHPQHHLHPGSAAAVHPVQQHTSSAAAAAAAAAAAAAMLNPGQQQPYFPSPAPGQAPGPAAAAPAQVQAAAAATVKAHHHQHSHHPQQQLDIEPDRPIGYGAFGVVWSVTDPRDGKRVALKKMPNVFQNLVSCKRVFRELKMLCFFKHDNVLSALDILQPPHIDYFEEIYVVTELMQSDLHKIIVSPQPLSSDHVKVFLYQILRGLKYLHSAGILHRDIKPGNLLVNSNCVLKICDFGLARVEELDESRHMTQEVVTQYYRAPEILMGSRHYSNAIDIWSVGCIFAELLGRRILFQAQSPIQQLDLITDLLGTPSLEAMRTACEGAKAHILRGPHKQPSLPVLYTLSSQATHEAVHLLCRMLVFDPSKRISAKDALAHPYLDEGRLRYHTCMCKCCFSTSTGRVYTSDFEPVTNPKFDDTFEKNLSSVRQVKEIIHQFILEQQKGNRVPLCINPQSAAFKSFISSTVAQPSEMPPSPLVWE

Flt3(h) (human) = target: T5, Flt3(h) (human) (UniProt P36888)
T5 sequence (looked up): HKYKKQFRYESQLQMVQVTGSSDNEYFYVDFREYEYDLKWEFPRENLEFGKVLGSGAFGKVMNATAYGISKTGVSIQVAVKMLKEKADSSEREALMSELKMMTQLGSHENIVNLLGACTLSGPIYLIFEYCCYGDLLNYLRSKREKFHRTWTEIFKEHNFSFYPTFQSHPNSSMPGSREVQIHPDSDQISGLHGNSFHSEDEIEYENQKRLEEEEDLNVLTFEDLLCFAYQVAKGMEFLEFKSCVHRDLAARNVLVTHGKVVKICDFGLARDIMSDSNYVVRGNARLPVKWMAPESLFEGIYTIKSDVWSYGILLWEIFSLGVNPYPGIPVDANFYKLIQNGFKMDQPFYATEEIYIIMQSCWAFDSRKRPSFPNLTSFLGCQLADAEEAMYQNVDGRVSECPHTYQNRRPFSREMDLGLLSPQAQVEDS

Pim-3(h) (human) = Pim-3(h) (human) (UniProt Q86V86)
NEK6(h) (human) = NEK6(h) (human) (UniProt Q9HC98)

% activity at 100 µM (PRK2(h) (human))	% activity at 100 µM (PKCζ(h) (human))	% activity at 100 µM (DDR2(h) (human))	% activity at 100 µM (CHK2(h) (human))	% activity at 100 µM (Hck(h) activated (human))	% activity at 100 µM (PKCθ(h) (human))	% activity at 100 µM (ZAP-70(h) (human))	% activity at 100 µM (LOK(h) (human))	% activity at 100 µM (Mer(h) (human))	% activity at 100 µM (Pim-1(h) (human))	% activity at 100 µM (TrkB (h) (human))	% activity at 100 µM (NLK(h) (human))	% activity at 100 µM (Flt3(h) (human))	% activity at 100 µM (Pim-3(h) (human))	% activity at 100 µM (NEK6(h) (human))	Substance
33%	81%	94%	66%	82%	88%	75%	37%	52%	8%	5%	87%	84%	80%	82%	MMI-0300 (peptide)
27%	75%	95%	54%	81%	76%	33%	18%	50%	7%	8%	90%	18%	80%	85%	MMI-0400 (peptide)
7%	7%	79%	13%	67%	62%	1%	7%	17%	0%	12%	19%	17%	37%	49%	MMI-0500 (peptide)
